Laboratory results as given in the supplement of paper PMC9170038.

Experiments:
[1] = system: MS2 coat protein; test: apparent KD of MS2 coat protein, switch OFF state (with FMN for OFF switches, without FMN for ON switches); designed switch direction (-1 OFF switch, 1 ON switch): 1; higher = weaker reporter binding; settings: FMN input: 0 or 200 uM; Eterna round: R93 (includes R88 designs)
Outline: (§1)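 Designed RNA switches were transcribed on-chip from Illumina sequencing clusters. They were then titrated with SNAP-549-labelled MS2 coat protein (twofold steps, 0.7 or 1.5 nM to 3 µM; 0.8–1.5 h to 10–20 min per step) in 100 mM Tris-HCl pH 7.5, 80 mM KCl, 4 mM MgCl2, without or with constant ligand. Apparent KD is the per-design median of normalised cluster binding-curve fits.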

[2] = system: MS2 coat protein; test: apparent KD of MS2 coat protein, switch ON state; designed switch direction (-1 OFF switch, 1 ON switch): 1; higher = weaker reporter binding; settings: FMN input: 0 or 200 uM; Eterna round: R93 (includes R88 designs)
Outline: as §1

Row | Sequence | apparent KD of MS2 coat protein [1] [nM] | apparent KD of MS2 coat protein [2] [nM]
1 | AAAAAACAUGAGGAUCACCCAUGUGACAACAUGGGAGGAUAUACAAAGACGAGAGUCGAAGUAGAAGGCCUAAAAA [Garnet 77] | 32.6 | 66.1
2 | AGAAGACAUGAGGAUCACCCAUGUGGGAUUAUGGGAGGAUAUACAAAGACGAGAGUCAGAGUAGAAGGCCUAGGAU [salish99-ss1-113(!)] | 70.8 | 24.7
3 | AGAAAUAAAAGAGAGGAUAUCCAAAAAGGGACAUGAGGAUCACCCAUGUAAAAGAAAAUAAAAUGGGAGAAGGCUCAAAAUAAAG [80%, More Helter Skelter 2] | 120 | 97.3
4 | AAGAAACAUGAGGAUCACCCAUGUACCCAAAAGGCAGGAUAUGGGAAAGAAAGAAAGAAACCAGAAGGGCCAUGAA [Sogdianus] | 57.1 | 30.1
5 | GAAAAACAUGAGGAUCACCCAUGUAGAAAUAUGGGAGGAUAUACGAAGACGAAAGUCAAAGUAGAAGGCCUAAAAG [Mat - Same State 1 - Eli mod - D22] | 57.3 | 28
6 | AAGAACGUGGUGUAGGAUAUACUAAUAGUCACAUGAGGAUCACCCAUGUUCAUAUAUAUGAACGAGUAGAAGGACGACGAAAAAA [Mat - Same state - Malcolm Mod - D107] | 147 | 137
7 | AAAAAAAAAACUGAGGAUAUCAGGGAUGGUACAUGAGGAUCACCCAUGUUGGCGGGCGAAGAAACUGAGAAGGCAGAAAAAAAAAA [JR_SameState2_Sub4] | 79.6 | 40.4
8 | AUAUAUAUAAGGUAGGAUAUCCAAUAAUCCACAUGAGGAUCACCCAUGUAAAGAAAGAAAAAGUGGGAGAAGGGCCAUAUAUAUA [viburnum 7] | 48.4 | 17.4
9 | UAUAAACAUGAGGAUCACCCAUGUAGAAAUAUGGGAGGAUAUACGAAGACGAAAGUCAAAGUAGAAGGCCUAAUAU [Mat - Same State 1 - Eli mod - D113] | 49.2 | 16.9
10 | UAGAGAACAGGGUAGGAUAUGCAUGGUCGUACAUGAGGAUCACCCAUGUAGUCUAGAAAAUAAAUGCAGAAGGACCAAAAGAAAA [Edsodiin] | 32 | 15.6
11 | AACCAACAUGAGGAUCACCCAUGUCAACCCAAGCGAGGAUAUCGGAGAAUAACAAUGGGACGAGAAGGCGCGACCU [ss1-2] | 36.9 | 34.4
12 | AAUAACUAUAGCAAGGAUAUCCGAAACAAGACAUGAGGAUCACCCAUGUAAUAAGACAAAAUAUAGGAGAAGGUGCAGGGUGAAA [JR_SS002_Sub010] | 116 | 75.3
13 | GAGGACAUAGUACAGGAUAUAUGAAUAGUUACAUGAGGAUCACCCAUGUGCAUUUAUAUGCGAACAUAGAAGGGUGGUAGUUAUC [SameState2 Malc#30] | 68.9 | 136
14 | AAAAAACAUGAGGAUCACCCAUGUAGAAAUAUGGGAGGAUAUACAAAGACGAAAGUCAAAGUAGAAGGCCUAAAAA [77%, Mat - Mod of Eli, 2] | 57.8 | 18.2
15 | AAAAGACAUGAGGAUCACCCAUGUAAAAACGUAGGAGGAUAUGUCGUGAAAAAAGACUUGGCAGAAGGCCUGUGUC [SS1 - 39] | 50.5 | 30
16 | GAGAAGAAGAGAGAGGAUAUCCAAAGGAAAACAUGAGGAUCACCCAUGUAAAAGGUAGGAAAUUGGGAGAAGGCUCAAAAGAGGG [salish99-ss2-028(!)] | 44 | 19.9
17 | GAUAGACAUGAGGAUCACCCAUGUAGAAUUAUGGGAGGAUAUACAAAGACGAGAGUCAGAGUAGAAGGCCUAGGAU [salish99-ss1-157] | 54.4 | 23.6
18 | AUGAAUAGAAUCGAGGAUAUCCAGUCAUGAACAUGAGGAUCACCCAUGUAAGAGAGAGUAUAAUGGGAGAAGGCGAGUAAUAGAU [JR_SS002_Sub1702] | 84.5 | 27
19 | GGAAAACAUGAGGAUCACCCAUGUGAAAACGUGGGAGGAUAUCCAUGGAAACCAUACUGUGGAGAAGGCCCAUGUC [EteRNA is fun!] | 65.2 | 19.6

Row | Sequence | apparent KD of MS2 coat protein [1] [nM] | apparent KD of MS2 coat protein [2] [nM]
20 | AAGAAACAUGAGGAUCACCCAUGUAAGAUAAACACAGGAUAUGCGAAUAAAAUAAAUAAAGCAGAAGGGUGAAGAA [Mat - Same State 1 - Tesla mod - D150] | 34.3 | 17.1
21 | AGAAAUAAAAGACAGGAUAUCCACUCAAAAACAUGAGGAUCACCCAUGUAAAAGAAAAUAAAAUGGGAGAAGGGUCAAAAUAAGA [Jieux modified + C segment V7] | 48.6 | 15.5
22 | AAUACACAUAGUCAGGAUAUCAAAAAUAAGACAUGAGGAUCACCCAUGUAAUAAGUAAAAGUAAAUGAGAAGGGACAGGGUGACC [JR_SS002_Sub403] | 199 | 1560
23 | AGAAAACAUGAGGAUCACCCAUGUGACAAUAUGGGAGGAUAUACCAAGACGAAAGUCGAAGUAGAAGGCCUAAAGA [Garnet 51] | 69.8 | 22.9
24 | AAAAAACAUGAGGAUCACCCAUGUAAAAAUAUGGGAGGAUAUGCGAAAAGAAACAAAGAAGCAGAAGGCCUAAAAA [75%, Ex5 sub 1, 8] | 185 | 25.6
25 | AACAAUCUAUCUGAGGAUAUCAUGUCAAAGACAUGAGGAUCACCCAUGUAGCAGGAAACUGCAUAUGAGAAGGCAGAUAGAUUGA [SS2: 1118] | 166 | 16.3
26 | GAAAAACAUGAGGAUCACCCAUGUGGAAAUAUGGGAGGAUAUACGAAGACGAAAGUCGAAGUAGAAGGCCUAAAAG [Same State 1.4d (Mat - Mod of Eli - )] | 98.1 | 29.5
27 | AUAAAACAUGAGGAUCACCCAUGUAGACACAUGGGAGGAUAUACUAGAUCGAAAGAUCUAGUAGAAGGCCUUUGUA [Mat - Same State 1 - JL mod - D93] | 749 | 131
28 | CAUAGACAUGAGGAUCACCCAUGUAGAAUUAUGGGAGGAUAUACAAAGACGAGAGUCAGAGUAGAAGGCCUAGGAG [salish99-ss1-163] | 34 | 24.4
29 | AUACUGGAGGACAAGGAUAUGUGCUCCACGACAUGAGGAUCACCCAUGUGCGACGUGGUAGUGAAACAGAAGGUGUCCUAUUGUA [Edonisve] | 17.7 | 13.1
30 | CAGAGGAAGAGAGAGGAUAUCCAAAGGAAAACAUGAGGAUCACCCAUGUAAAAGGUAGGAAAUUGGGAGAAGGCUCAAGAGAGAG [salish99-ss2-064] | 34.6 | 27.4
31 | AAACCACAUGAGGAUCACCCAUGUAAAAAAAACACAGGAUAUGGAAACACGAAAGUGAAACCAGAAGGGUGAAAAA [77%, Mat - Mod of Eli, 26] | 26.2 | 18.4
32 | AGCGAACAUGAGGAUCACCCAUGUGAAAAACAUAGAGGAUAUGUCGCAUGCGUGUAAAAGACAGAAGGCUAUCGCG [Mat - Mod of Nando] | 52.1 | 24
33 | AAUAAACAUGAGGAUCACCCAUGUACCUACCACUAAGGAUAUGGGCGAAUAACAGCUCGGCCAGAAGGUAGAGGUG [Onususer] | 82.9 | 116
34 | AAUACCACUAGCAAGGAUAUCUAAAACGAAACAUGAGGAUCACCCAUGUGACGACCACACGUAUCAGAGAAGGUGCAGGGUGAAU [JR_SS002_Sub306] | 24 | 24.2
35 | AUUCCAAAUAGUCAGGAUAUCAGGCGUAAGACAUGAGGAUCACCCAUGUACUUAGUAAAAGUAACUGAGAAGGGACAGGGUGUAA [JR_SS002_Sub407] | 18.5 | 8.64
36 | GAAAAACAUGAGGAUCACCCAUGUGAGAUAAACACAGGAUAUGCGAAAAUAAACAAAUAAGCAGAAGGGUGAAAAG [Mat - Same State 1 - Tesla mod - 80] | 92.4 | 27.1
37 | AAUAUACAUGAGGAUCACCCAUGUUAGGUGGGACUAGGAUAUCAAAAUAAAUAAAGAACAUGAGAAGGAGUAUAAA [JR_SS001_Sub017] | 178 | 75.3
